Measured values reported in the DeepSol protein solubility set.

test: soluble on expression in E. coli; label from the status in PepcDB or PDB records

Sequence | soluble on expression in E. coli
MEKFRVIGSTQPLQGEVTISGAKNAALPILFASILAEEPVEVANVPHLRDIDTTMELLERLGAKVERNGSVHVDAGPINQYCAPYDLVKTMRASIWALGPLVARFGQGQVSLPGGCAIGARPVDLHIHGLEQLGATITLEDGYVKAHVDGRLQGAHIVMDKVSVGATITIMCAATLAEGTTVLDNAAREPEIVDTAMFLNKLGAKISGAGTDSITIEGVERLGGGKHAVVPDRIETGTFLVAAAVSRGKIVCRNTHAHLLEAVLAKLEEAGAEIECGEDWISLDMTGRELKAVTVRTAPHPGFPTDMQAQFTLLNMMAKGGGVITETIFENRFMHVPELKRMGAKAEIEGNTVICGDVDRLSGAQVMATDLRASASLVIAGCIAKGETIVDRIYHIDRGYERIEDKLSALGANIERFRD | not soluble
MEKGSVMSLFIYMSQSMFNFDALTPDFMWYALESIGIRAESGFLPLNSYENRVYQFTDEERRRYVVKFYRPERWSNEQIQEEHDFTLELIDSEIPVAPPVRINGNTLHHYQGYGFALFESVGGRQFEVDNLEQLEGVGRFLGRIHKVGSRQAFQHRPTIGLQEYLYQPREILQNANMIPMHLENSFFNDLDMLIKAIENHWQGSFATIRLHGDCHPGNILWRDGPMFVDLDDSRNGPAVQDLWMLLNGERQDKLMQLDIILEAYQEFCDFNAAELKLIEPLRGLRMVHYMAWLAKRWHDPAFPLAFPWFNEPKYWEGQVLAFKEQIASLEEAPLSLMPQWLEHHHHHH | not soluble
MEKKFPTVVTIGGRRYVKNNLNRKSEDCKMKLKEALKSFGRRVQKLQMSHCTIEKGTSLHVYKLDDARVIFTKKNKPIGFVVTGKAEEIDKSVYEKASSEINDATGKPNEPGAEERAEKDDASLID | not soluble
MEKLHQCYWKSGEPQSDDIEASRMKRAAAKHLIERYYHQLTEGCGNEACTNEFCASCPTFLRMDNNAAAIKALELYKINAKLCDPHPSKKGASSAYLENSKGAPNNSCSEIKMNKKGARIDFKDVTYLTEEKVYEILELCREREDYSPLIRVIGRVFSSAEAL | soluble
MEKLTKRQQDILDFIKLKVQEKGYPPSVREIGQAVGLASSSTVHGHLSRLEEKGYIRRDPTKPRAIEILGEDRMDTETQSVIQVPIVGKVTAGLPITAVESVEEHFPLPASIVAGADQVFMLRISGDSMIEAGIFDGDLVVVRQQQSAYNGEIVVALTEDNEATVKRFYKEKDHFRLQPENSSLEPIILKQVSVIGKVIGVYRDLH | not soluble
MEKMHITNQEHDAFVKSHPNGDLLQLTKWAETKKLTGWYARRIAVGRDGEVQGVAQLLFKKVPKLPYTLCYISRGFVVDYSNKEALNALLDSAKEIAKAEKAYAIKIDPDVEVDKGTDALQNLKALGFKHKGFKEGLSKDYIQPRMTMITPIDKNDDELLNSFERRNRSKVRLALKRGTTVERSDREGLKTFAELMKITGERDGFLTRDISYFENIYDALHEDGDAELFLVKLDPKENIAKVNQELNELHAEIAKWQQKMETSEKQAKKAQNMINDAQNKIAKNEDLKRDLEALEKEHPEGIYLSGALLMFAGSKSYYLYGASSNEFRDFLPNHHMQYTMMKYAREHGATTYDFGGTDNDPDKDSEHYGLWAFKKVWGTYLSEKIGEFDYILNQPLYQLIEQVKPRLTKAKIKISRKLKRK | not soluble
MEKNWYVVHTYSGYENKVKANLEKRVESMGMQDKIFRVVVPEETETDVKNGKRKTTKKKVFPGYVLVEMVMTDDSWYVVRNTPGVTGFVGSSGAGSKPTPLMEEEVKMILKRMGMPLAEVDVDYEVNETVRIKEGPFANFTGKIEAIDPDKHKVKLLVDMFGRETRVELEFSQIEKI | not soluble
MEKRGVIDTWIDKHRSIYTAATRHAFVVSIRDGSVDLSSFRTWLGQDYLFVRRFVPFVASVLIRACKDSGESSDMEVVLGGIASLNDEIEWFKREGSKWDVDFSTVVPQRANQEYGRFLEDLMSSEVKYPVIMTAFWAIEAVYQESFAHCLEDGNKTPVELTGACHRWGNDGFKQYCSSVKNIAERCLENASGEVLGEAEDVLVRVLELEVAFWEMSRGGQ | soluble
MEKYSQVIFDKNTVEFVTVAAEFCGFLERARDMKRYDFVDTALKILPLLYLKATLLPPCEPIGEDEPETFVTEEDYELIRRAIAGVLGAKDDYLEVFLPDMVYSDTPIKKCISEDLADIYQDLKDFISVFQLGLNETMNDSLVVCKEHFREFWGQRLVNTMRALHDVKYSPADDGEEEEMEDENSLLLEHHHHHH | soluble
MELERIVSAALLAFVQTHLPEADLSGLDEVIFSYVLGVLEDLGPSGPSEENFDMEAFTEMMEAYVPGFAHIPRGTIGDMMQKLSGQLSDARNKENLQPQSSGVQGQVPISPEPLQRPEMLKEETRSSAAAAADTQDEATGAEEELLPGVDVLLEVFPTCSVEQAQWVLAKARGDLEEAVQMLVEGKEEGPAAWEGPNQDLPRRLRGPQKDELKSFILQKYMMVDSA | soluble
MELISIIVPVYNGEIYIGRCLDSILEQTYQNLEIIIIDDGSSDRTGDICEKYFLEDRRIKYFYQENRGQSVARNNGVLRCTGDWIAFLDSDDVYLPYSIEVMYNIQKATNADIVLTSIGNFNNTYNTSINSQYLKEIKLYTLEVALEEMYYGKTYGVSPLAKLYPRSNLLSNPYPEGKIHEDMDTTFKLISCASKIAVCDIVTAVVYFSDNSTTRTKFNERMLYFFEAIQNNIVFINLNFPHNTSLISAVIYNEVFGGIDICGKMIDFKLYDTVDYYRKKYRKYFKTILFNNRISVKEKVKYILFISSIRYFTIVRKIYNLRLSRNGLEHHHHHH | not soluble
MELPFSQACENNKDPILEVLKTAFSDCTRVLEVGSGTGQHAVYFASQLPNIHWQASDQKEYLPGVTARIKQEGVTNQPLPVEFDVFADAPGGTFNALFTANTCHIMPKEGVERLFEHLEGDLSSVERLCIYGPFNDNGHFTSDSNRGFHQSLQSRNSDMGIRDWQWITELANQQGFELKKIHPLPANNQLLEFQRLEHHHHHH | soluble
MELQEVLHMNGGEGDTSYAKNSSYNLFLIRVKPVLEQCIQELLRANLPNINKCFKVGDLGCASGPNTFSTVRDIVQSIDKVGQEKKNELERPTIQIFLNDLFQNDFNSVFKLLPSFYRNLEKENGRKIGSCLIGAMPGSFYSRLFPEESMHFLHSCYCLHWLSQVPSGLVTELGISVNKGCIYSSKASRPPIQKAYLDQFTKDFTTFLRIHSEELISRGRMLLTFICKEDEFDHPNSMDLLEMSINDLVIEGHLEEEKLDSFNVPIYAPSTEEVKRIVEEEGSFEILYLETFNAPYDAGFSIDDDYQGRSHSPVSCDEHARAAHVASVVRSIYEPILASHFGEAILPDLSHRIAKNAAKVLRSGKGFYDSVIISLAKKPEKADM | soluble
MELTMKNPTVENLKVLTQEFFSLHWNAVLLGSDYPEWSDIYEFTGSMPNHDKQGVYAFVKNGVVTYIGVGASSNGTGRYAGHGLGKRFQSYSKVVDGRHVPTDPRLVDAGAMITIGFKPEQSYLAYALEMFLIGKMSTEHNINRPSK | not soluble
MELVIISGRSGSGKSVALRALEDVGYYCVDNLPFPLIAELASFLLASDCSAVVSLDIRNFPENLTRIDELLHQLSQLTINTKMIFLDCESATLIRRYSDSRRLHPLSNQDLSLASAIELENTLLDPLRQQADYLIDTTHSSPHELAANLRHILRGSTEKELNIVFESFGFKYGLSADADYVFDVRFLPNPHWHAELRAMTGLEQPVIDFLERQTEVHNFIYQTRNYLETWLPMLEKNNRSYLTIAFGCTGGKHRSVFITEQLAKYFQSRGKNVKIRHRSLEKY | not soluble
MEMTSAFTLNVRLDNIAVITIDVPGEKMNTLKAEFASQVRAIIKQLRENKELRGVVFVSAKPDNFIAGADINMIGNCKTAQEAEALARQGQQLMAEIHALPIQVIAAIHGACLGGGLELALACHGRVCTDDPKTVLGLPEVQLGLLPGSGGTQRLPRLIGVSTALEMILTGKQLRAKQALKLGLVDDVVPHSILLEAAVELAKKERPSSRPLPVRERILAGPLGRALLFKMVGKKTEHKTQGNYPATERILEVVETGLAQGTSSGYDAEARAFGELAMTPQSQALRSIFFASTDVKKDPGSDAPPAPLNSVGILGGGLMGGGIAYVTACKAGIPVRIKDINPQGINHALKYSWDQLEGKVRRRHLKASERDKQLALISGTTDYRGFAHRDLIIEAVFENLELKQQMVAEVEQNCAAHTIFASNTSSLPIGDIAAHATRPEQVIGLHFFSPVEKMPLVEIIPHAGTSAQTIATTVKLAKKQGKTPIVVRDKAGFYVNRILAPYINEAIRMLTQGERVEHIDAALVKFGFPVGPIQLLDEVGIDTGTKIIPVLEAAYGERFSAPANVVSSILNDDRKGRKNGRGFYLYGQKGRKSKKQVDPAIYPLIGTQGQGRISAPQVAERCVMLMLNEAVRCVDEQVIRSVRDGDIGAVFGIGFPPFLGGPFRYIDSLGAGEVVAIMQRLATQYGSRFTPCERLVEMGARGESFWKTTATDLQ | soluble
MENGIGYIPLLNVSHKHGGTHFYRKNSGTCDLCEKNFKTSEELVEHKKNYPRADVEKALSVYKEKDTIYKCLQCSGEFRLKEDFDYHQELHKRLGELKSASSNKSEANKDDESDIDSSFEIIEN | not soluble
MENLKNVAPIEDFNWDAYENGEAVTSASHEDLEKAYDGTLNKVNDREVVDGTVIAMNKREVVVNIGYKSDGIIPLNEFRYNPDLKVGDTVEVYIENQEDKKGQLVLSHRKARATRSWDRVNAALENEEIIKGFIKCRTKGGMIVDVFGIEAFLPGSQIDVKPIRDYDVFVGKTMEFKVVKINQEFKNVVVSHKALIEAELEQQKKEIIGKLEKGQVLEGTVKNITSYGVFIDLGGVDGLIHITDLSWGRVSDPKEVVELDQKLNVVILDFDDEKKRIALGLKQLTPHPWDALDTDLKVGDKVKGKVVVMADYGAFIEIATGVEGLIHVSEMSWSQHLRSAQDFMKVGDEVEAVVLTLDREERKMSLGIKQLKQDPWETIEEKYPVGSKHTAKVRNFTNFGVFVEIEEGVDGLIHISDLSWTKKVKHPSEFTQIGADIEVQVLEIDKENRRLSLGHKQLEENPWDVFETVFTVGSVHEGTIIEMLDKGAVVALPYGVEGFATPKHLVKEDGSQAQLDEKLEFKVIEFNKDAKRIILSHSRIFEDVAKAEERAEKKAASGAKKSSNNKREDAPMIQNQAASTTLGDIDALAALKEQLEGKKLEHHHHHH | soluble
MENPLQKARILVNQLEKYLDHYAKEYDVEHLAGPQGHLVMYLYKHPDKDMSIKAVEEILHISKSVASNLVKRMEKNGFIAIVPSKTDKRVKYLYLTHLGKKKATQFEIFLEKLHSTMLAGITKEEIRTTKKVIRTLAKNMAMENLD | soluble
MENSIRYISEHPTDFNGLLSLYESLGWNSLKLTVNELERMCKQSWYAIYVFDDKRLVGMGRVISDGVITGIICGVGVLPKYQSSGIGKEIVKRLIQHCEQNKVIPQLMCVEKLQSYYESIGFEAFSIGMTKHIIR | not soluble
MENTETLIVEQLKIGNENAYRYIYDHHYALLCYVANGYLKDQFLSETIVGDTIFHLWEIRETLDISVSIRSYLLRAVRNRCINYLNSEREKREIAFSALMPDEITDDKIILSDSHPLGILLERELENEIYKAIDKLPDECRRVFAKSRFEGKSYEEISGELGISINTVKYHIKNALASLHAHLSKYLISLLLFFFR | not soluble
MENVVIIDAVRTPMGRSKGGAFRHVRAEDLSAHLMRAVISRNPGLNAAEIDDIYWGCVQQTLEQGFNIARNASLLAEIPHSVPAVTVNRLCGSSMQALHDGARAIMVGDAKISLIGGVEHMGHVPMNHGVDFHPGMGRTVAKAAGMMGLTAEMLAKIHNISRQSQDEFAFRSHQRAYAATQAGHFAKEIVATNGHDAEGVLKRFDFDEVIRPETNLSGLAALRPAFDPVNGTVTAGTSSALSDGASAMLIMSESRAKSLGLTPRARIRSMAVVGCDPSIMGYGPVPASQLALKRAGLELADIGLFELNEAFAAQSLACLKGLGLLESMDDKVNLNGGAIALGHPLGCSGARISTTLLNLMERRDVQFGLATMCIGLGQGIATVFERL | not soluble
